Assay [1] addresses maize glutamine synthetase (maize (endogenous in maize leaf and roots)). The experiment in a line: native gel or EMSA; maize leaf and root extracts beside wheat (Supplementary Fig. S5); gel system not given.
Assay [2] deals with chloroplastic glutamine synthetase GS2 of wheat (Triticum aestivum (endogenous in wheat seedlings)). The experiment in a line: native gel or EMSA; modified blue native electrophoresis (BNE), 4-13% polyacrylamide gradient gel, 4 °C; 1 h with cathode buffer with 0.02% Coomassie G250, then buffer without dye; ~100 ug soluble proteins from wheat seedling chloroplasts, leaves and roots; GS bands detected by in-gel transferase activity; mass calibrated against high-molecular-weight markers.

Assay [3] addresses cytosolic glutamine synthetase GS1 holoenzyme of wheat (39 kDa subunit) (Triticum aestivum (endogenous in wheat seedlings)) (UniProt Q45NB7). The assay is described as above.

For the substance “maize glutamine synthetase (natural protein)”, the stoichiometry N in assay [1] was 10.
“chloroplastic glutamine synthetase GS2 of wheat (natural protein)” returned a stoichiometry N in assay [2] of 6.
Regarding “cytosolic glutamine synthetase GS1 holoenzyme of wheat (39 kDa subunit) (from UniProt Q45NB7 1-356) (natural protein)”, the stoichiometry N in assay [3] was found to be 12.

By stoichiometry N is commonly meant a count of units in the complex or per binding partner.

The record behind these values is publication PMC4623691.
